Experimental data from the Human Domainome abundance scans (Beltran et al. 2025).

B1: DnaJ homolog subfamily C member 5, residues 16 to 77; numbered along this chain, Q9H3Z4 (parent)
chain: LYHVLGLDKNATSDDIKKSYRKLALKYHPDKNPDNPEAADKFKEINNAHAILTDATKRNIYD

Variants of: B1
Experiment: abundance fitness (aPCA) (normalised: wild type 0, dead -1); higher = more abundant; growth selection in yeast, the domain comes from the species named
Settings: Homo sapiens

Abundance fitness, by site and new letter:
L23: K -0.247; E -0.067; I -0.736; P -0.438; H -1.2; A -0.454; M -0.209; F -0.536; V -0.525; Q -0.334; N -0.052; W -0.423; Y -0.403; D -0.129; G -0.308; S -0.423
A11: N -0.125; T -0.553; C -0.182; E -1.13; K -0.569; I -1.49; S -0.578; P -0.536; V -0.661; M -1.6; R -0.846; L -0.941; Q -1.25; G -0.536; W -1.24
S13: T 0.055; D 0.068; I 0.046; C -0.215; F -0.267; G -0.376; H -0.496; L -0.04; R -0.354; A -0.116; Y -0.188; P -0.272; V -0.162; N 0.002; W -0.336; M 0.04; E -0.023
A24: C 0.159; I 0.086; G -0.377; M -0.028; K -0.034; D -0.552; V 0.126; S 0.044; Y 0.208; W 0.245; F 0.213; T 0.002; Q -0.093; P -0.449; L -0.095; R -0.041; E 0.028
L25: N -0.073; P -0.21; S -0.377; C -0.102; M -0.101; D 0.17; G -0.293; E 0.321; R -0.069; F -0.068; W -0.346; H -0.442; Y -0.299; A 0.039; V -0.007; K -0.159; Q 0.024; T -0.025
K22: M 0.32; I -0.179; R 0.041; G 0.045; A 0.117; H 0.169; S 0.166; F -0.16; P -0.266; Y -0.246; L 0.039; Q 0.217; V 0.168; C -0.19; N -0.188; E 0.249; W -0.339
K17: I -0.107; R -0.032; L -0.18; D -0.477; E 0.084; G -0.251; P -1.31; C -0.361; M -0.09; F -0.52; T -0.07; N -0.248; W -0.204; Q -0.063; V 0.039; A 0.048; S -0.153; H 0.057
S19: G -0.3; P -0.516; V -0.187; R -0.317; F -0.88; K -0.391; A 0.02; W -0.813; I -0.762; E -0.091; C -0.088; Q 0.042; Y -0.299; H -0.333; D -0.485; T -0.106
T12: K -0.437; W -1.31; I -0.412; L -0.813; S -0.232; N -0.426; A -0.878; P -1.01; F -0.857; H -0.349; D -0.467; C -0.235; E -0.573; M -0.678; G -0.472; Y -1.07
K9: H -0.341; V -0.004; Q -0.25; S -0.125; I -0.099; D -0.05; P -0.252; Y -0.163; R -0.116; N -0.394; G -0.215; T -0.27; A 0.077; W -0.499; F -0.281; M -0.458; E 0.007; C -0.246
Y27: N -0.83; E -0.07; R -0.543; M -0.196; S -0.21; G -0.27; A -0.344; P -0.61; V -0.571; I -0.715; C -0.239; W 0.231; H 0.185; K -0.379; L -0.326; T -0.157; F 0.185; D -0.316
D14: I -0.105; T -0.346; H -0.394; R -0.359; E -0.048; C -0.549; N -0.151; K -0.209; W -0.357; V -0.341; Q -0.394; F -0.848; P -0.348; L -0.238; S -0.242; A -0.166; Y -0.431; G -0.401
P29: M -0.386; H -0.539; A -0.053; D -0.111; G -0.381; L -0.472; I -0.57; F -0.542; C -0.42
K26: H -0.239; A -0.081; L -0.075; N -0.358; R -0.214; T -0.189; P -0.264; Q 0.032; W -0.477; I 0.244; C -0.318; E 0.155; M 0.021; G -0.415; D -0.12; F -0.385; S -0.211; V -0.13
R21: A 0.379
D8: Y -0.421; T -0.309; W -0.648; V -0.648; S -0.378
H28: A -0.06; C -0.29; L -0.536; R -0.194; G -0.037; D 0.062; S 0.219; F -0.541; E 0.179; Y -0.409; W -0.474; Q 0.34; V -0.459; K 0.134
N10: H -0.493; S -0.142; T -0.073; D -0.343; W -0.4; R -0.464; A -0.293; F -0.371; I -0.741; L -0.342; E -0.343; V -0.711; Q -0.266; Y -0.796; P -0.818
D15: G -0.433; W -0.271; M -0.359; I -0.328; Y -0.888; R -0.693; C -0.24; S -0.382; E -0.067; K -0.17; P -0.643; F -0.689; A -0.042; L -0.412; H -0.679; T -0.367
Y20: G -0.189; H 0.109; C -0.182; P -0.093; W 0.329; Q 0.015; F 0.191; L -0.505; V -0.28; R -0.148; D -0.053; S -0.086; K -0.27; M -0.414; E 0.2; T -0.236; I -0.603
I16: R -0.586; W -0.998; M -0.65; G -0.442; K -0.45; L -0.285; Y -0.649; P -0.587; F -0.064; D -0.567; S -0.435; A -0.32; C -0.44; N -0.615; H -0.723; V -0.238; E -0.305; Q -0.437
K18: M 0.06; S 0.04; R -0.13; F 0.117; E 0.11; T -0.025; D -0.062; A 0.079; Q -0.104; I -0.005; C -0.101; W -0.226; P -0.623; L -0.157; Y -0.333; N -0.34; V -0.098
